B1: Centrosomal protein of 68 kDa (Homo sapiens), Q76N32 (parent)
chain: MALGEEKAEAEASEDTKAQSYGRGSCRERELDIPGPMSGEQPPRLEAEGGLISPVWGAEGIPAPTCWIGTDPGGPSRAHQPQASDANREPVAERSEPALSGLPPATMGSGDLLLSGESQVEKTKLSSSEEFPQTLSLPRTTTICSGHDADTEDDPSLADLPQALDLSQQPHSSGLSCLSQWKSVLSPGSAAQPSSCSISASSTGSSLQGHQERAEPRGGSLAKVSSSLEPVVPQEPSSVVGLGPRPQWSPQPVFSGGDASGLGRRRLSFQAEYWACVLPDSLPPSPDRHSPLWNPNKEYEDLLDYTYPLRPGPQLPKHLDSRVPADPVLQDSGVDLDSFSVSPASTLKSPTNVSPNCPPAEATALPFSGPREPSLKQWPSRVPQKQGGMGLASWSQLASTPRAPGSRDARWERREPALRGAKDRLTIGKHLDMGSPQLRTRDRGWPSPRPEREKRTSQSARRPTCTESRWKSEEEVESDDEYLALPARLTQVSSLVSYLGSISTLVTLPTGDIKGQSPLEVSDSDGPASFPSSSSQSQLPPGAALQGSGDPEGQNPCFLRSFVRAHDSAGEGSLGSSQALGVSSGLLKTRPSLPARLDRWPFSDPDVEGQLPRKGGEQGKESLVQCVKTFCCQLEELICWLYNVADVTDHGTAARSNLTSLKSSLQLYRQFKKDIDEHQSLTESVLQKGEILLQCLLENTPVLEDVLGRIAKQSGELESHADRLYDSILASLDMLAGCTLIPDKKPMAAMEHPCEGV

Experimental findings from IntAct's records for PubMed 25503564 are described below.

This assay covers variants of B1. The settings on record: with fbw1a_human BTRC.
For S332A;D337A, the “effect of a mutation on the interaction” value is reported as “disrupting interaction strength”.
Take D337A: the “effect of a mutation on the interaction” value is recorded as “decreasing interaction strength”.
As to S332A, the “effect of a mutation on the interaction” value is recorded as “disrupting interaction strength”.
